In the nanobody polyreactivity screen of Harvey et al. (2022):

experiment: yeast display, Sf9 membrane polyspecificity reagent, FACS + sequencing; frameworks hold sequencing errors
In short: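 Polyreactivity labels are assigned by the sorting gate from which each nanobody was recovered. The gates were low and high (top ~1%), set on anti-HA fluorescence for expression and streptavidin fluorescence for reagent binding. Before sorting, galactose-induced (36–48 hours) yeast display cells were stained for 1 hour at 4 °C with 10% biotinylated, detergent-solubilized Sf9 membrane reagent.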

| Sequence | polyreactivity (PSR sort gate) |
| --- | --- |
| QVQLVDSGGVLVQAVGSLRLSCAASGIIFDWYAMGWYRQAPGKERELVAAITANSDSTYYADSVNGRFTISRDNAKNTVYLQMNSLKPEDTAVYYCAARRQHRGANGGDYCGQGTQVTVSS | high polyreactivity |
| QVQLVESGGGLVQAGGSLRLSCAASGRIIYNNAMGWSRQAPGTERELVAAISIGGITYYADSVKGRFTISRDNAKNTVYLQMNSLKPEDTAVYYCAALNTGYRTRRLGRDYWGQGTQVTVSS | low polyreactivity |
| QVHLVESGGGLVQAGGRLRLSCAASGGTFYYNAMGRYRHATGKERELVAGITQSGGNTYYADSVKGRFTISRDNAKNTVYLHMNSLKPEDTVVYYCAARIRGTWKYGYWGQGTQVTVSS | low polyreactivity |
| QVQLVESGGGLVQAGGTLRLSCAASGSTIKPYAMGWNRQAPGKERELVAVIRWRGGRTYYADSVKGRFTISRDNAKNTAYFQINSQNPADTAVYYCAAGGSQAAGGYGYYGYDYWGQGTQVTVSA | low polyreactivity |
| QVQLGESGGGLVQAGGSLRLSCAASGSTFHPHAMGWYRQAPGKERELVATIRRTGDSTYDADSVKGRFTISRDHAKNTVNLQMNSLKPEDTAVYYCAARYYAESYRYYYWGQGTQGTVSS | high polyreactivity |
| QVQLVESGGGLVQAGGSLRLSCAASGRTFRWYAMGWYRQAPGKERELVAAISQSGGSTYYADSVKGRFTISRDNAKNSVYLQMNSLKPVDTAVYYCAKVTYRGYYSWGQGTQLTVSS | high polyreactivity |
| QVQLVESGGGLVQAGGSLRLSCAASGGIFSGYAMGWYRQAPGKERELVAAISRRGGSTYYADSVKGRFTISRDNAKNTVYLQMNSLKPEDTAVYYFAKAYPYTCGQVTMYYWGQGTQVTVSS | high polyreactivity |
| QVQLVESGGGLVQAGGSLRLSCASSGRIFDYNAKGWYRQAPGKERELVAAINSGGSTYADSVKGRFTISRDNAKNTVDLQMNSLKPEDTAVYYCAKSLGQTDWEYDSWGQGTQVTVSS | low polyreactivity |
| QVQLVESGGGLVQAGGSLSLICAASRFTFDSYAMGWYRQAPGKERELVAAINYSGGRTDYADSVKGRFTISRDNAKNTVYLQMNSLKPVDTAVYYCAAKGVRWGQGTQVTVSS | high polyreactivity |
| QVQLVDSGGGLVQAGGSLRLSCAASGLTFGFNAMGWYRQAPGKERELVAAISSGGSTYYADSVKGRFTISRDNAKNTVYLQMNSLKPEDTAVYYCATSVRQYGRTTYYYWGQGTQVTVSS | high polyreactivity |
| QVQLVESGGGLVQAGGSLRISCAASGRIFSYNAMGWYRQAPGKERELVAAITTGGSTYYADSVKGRFTISRDNAKNTVYLQMNSLKPEDTAVYYSIKLGYYYDRRYDYWGQGTQVNVSS | high polyreactivity |
| QVQLEESGGGLVQAGGSLRLSCAASGRTFRSYTMGWYRQAPGKERELGAAISYNGGSTYYADSVNGRFTISRDYAKNTVYLQMNSLKPEDTSVYYCAVYSIYGFYYWGQGTQVTVSS | high polyreactivity |
| QVQLVESGGGLVQAGGSLRLSCAASGRTFAAYAMGWYRKAPGKEREFVADITYSGGSTTYADSVKGRFTISRDNAKNTVYLQMNSLKPEDTAVYDCIKLAYTRGWRGFVWYDYWGQGTQVTVSS | low polyreactivity |
| QVQLVESGGGLVQAGGSLRLSCAASGFTFGSYAMGWYRQAPGTERELVADISRRGGRTYYADSVKGRFTISRDNAKNTVYLQMNSLKPEDTAVYYCNAVSYVYFYSSSYDYWGQGTQVTVSS | high polyreactivity |
| QVQLVESGGGLVQAGGSLRVSCAASGSIFSLYTMGWYRQAPGKERELVAAISGSGGRTYYADSVKGRFTISRDNAKNTVYLQMNSLKPEDTAVYYCAADTRSYTYYYWGQGTQVTVSS | high polyreactivity |
| QVQLVESGGGLVQAGGSLRLSCADSGFTFYVYTMGWYRQAPAKERELVAAITWSGGSTYYADSVKGRFTISRDNAKNTVYLQMNSLKPEDTAVYYCNRVGYWVGHDSWGQGTQVTVSS | high polyreactivity |
| QVQLVESGGGLVQAGGSLRLSCAASGNTFNSYAMGWYRQAPGKERELVAAIRWRGTSTYYADSVKGRFTISRDTAKNTVYLQMNSLKPEDTAVYYCAADVVRSNFYGTFLYDYDYWGQGTQVTVSS | low polyreactivity |
| QVRLVESGGGLVQAGGSLRLTCAASGSTFTTYALGWYRQAPGKERELVAAISSGGDTKYADSVKGRFTISRDNAKNTIYLQMNSLIPEDTAVYYCAKRRYYRYYYWGQGTQVTVSS | high polyreactivity |
| QVQLVESGGGLDQAGGSLRLSCAPSGFIFIRNAMGWYRQAPGKDRELVAAISSGGRTYYADSVKGRFTISRDNAKNTVYLQMNSLKPEDTAVDYCATRPHRPRGQSVGQYDDWGQGTQVTVSS | high polyreactivity |
| QVQLVESGGGLVQAGGSLRLSCAASGRTFTWNVMGWYRQAPGKERELVAAITTDDRTYADSVKGRFTISRDNAKNTVYLQMNSLKPEDTAVYYCATVVAWSSRPVGEDYWGQGTQVTVSS | low polyreactivity |
| QVQLVESGGGLVQAGGSLRLSCAASGRIFTSNTMGWYRQAPGKESELVAAITCSGGSMYYADSVKGRFTISRDNAKNTVYLQMNSLKPEDTEVYDCAADTLGYHYWYDYWGQGTQVTVSS | low polyreactivity |
| QVQLVESGGGLVQAGGSLRLSCAASGSIFKYYAMGWYRQAPGKERELVAAISSNGGRTYYADSVKGRFTISRDNAKNTVYLQMNSLKPEDTAVYYCNVVVKGAWDYYPYDYWGQGTQVTVSS | high polyreactivity |

| Sequence | polyreactivity (PSR sort gate) |
| --- | --- |
| QVQLVESGGGLVQAGGSLRISCAASGINFVTYAMGWYRKAPGKEREFVASINWITGNTYYADSVKGRFTISRDNAKNTVYLQMNSLKPEDTAVYYCATVDWSLYLGTPPSYYWGQGTQVTVSS | low polyreactivity |
| QVQLVESGGGLVQAGGSLRLSCAASGSTFSYNAMGWYRQAPGKERELVAAITSSGSSTYYADSVKGRFTISRYNAKNTVYLQMNSLKPEDTAVYYCAATLYNTEDDYWGQGTQVTVSS | low polyreactivity |
| QVQLVESGGGLVQAGGSLRLSCAASGRIFVVYAMGWYRQAPGKERELVAAITRSGGRTFYAASVKGRFTISRDNATNTVYLQMYSQKPEDTAVYYCNKVDRFYLRLVYWGQGTQVTVAS | high polyreactivity |
| QVQLVESGGGLVQAGGSLRLSCAASGRTFNYYAMAWYRQAPGKERELVAAISYSGGSTYYADSVKGRFTISRDNAKNTVYLQMNSLKPEDTAVYYCAVVIKWRSSYVYSYYYWGQGTQVTVSS | high polyreactivity |
| QVQLVVSGAGLVQAGGSLRLSCAASGRNVVRNAMGWSRQAPGNEREWVAAITSGGRTYYAVSVKGRFTISRDNAKNTVYLQMTSLTPEDTAVYSCSTETRPHSVKNSPISLPDDYWGQGTQETVSS | low polyreactivity |
| QVQLVESGGGLVQAGGSLRLSCAASGRIFGIYAMGWYRQAPGKERELVAVITRGDRTYADSVKGRFTISRDNAKNTVYLQMNSLKTEDTAVYYCNADTGYRFDYWGQGTQVTVSS | high polyreactivity |
| QVQLVESGGGLVHAGGSLRLSCAASGITSSQNAMGWYRQAPGKERELVAAISWRGGSTYYADSVKGRFTISRDNAKNNVYLQMNSLKAEDTAVYYCNVVKRSLRYDYWGQCTQVTVSS | high polyreactivity |
| QVQLVESGGGLVQAGGSLRLSCAASGYTFFFYAMGWYRQAPGKEREFVAAITWRGDSTYYADSVKGRFTISRDNAKNTVYLQMNSLKPEDTAVYYCAADPGFTWSRRMDYWGQGTQVTVSS | low polyreactivity |
| QVQLVESGGGLVQAGGSLRLSCAASGRTFNNNAMGWYRQAPGKERELVAAITSGGSTNYADSVKGRFTISRDNAKNTVYLQMNSLKPEDTAVYYCNAGYYSRRYYFSGRLDYWGQGTQVTVSS | low polyreactivity |
| QVQLVESGGGLVQAGGSLRLSCAASGRTFAWYAMGWYRQAPGKERELVATITSRGGSTYYADSVKGRFTISRDNAKNTVYLQMNSLKPEDTAVYYCAAQSFWRPHQYDYWGQGTQVTVSS | low polyreactivity |
| QVQLVESGGGLVQAGGSLRLSCAASGSTYTRYAMGWYRQATGKDRELVAAISRSGGSTYYADSVKGRFTISRDNAKNTVYLQMNSLKPEDTAVYYCRKFTLTTVTNYWGQGTQVTVSS | high polyreactivity |
| QVQLEESGGGIVQAGGSLRLSCAASGSIFGVYAMGMYRQAPGKERELVAVISRGGTYYADSVKGRFTISRDNAKNTVYLQMHSLKPEDTAVYYCAARTRKSTVFYGLDYWGQGTQVTVSS | high polyreactivity |
| QVQLVESGGGLVQAGGSLRLSCAASGSTFSKNTMGWYRKAPGKERELVAAITSGGSTYYADSVKGRFTISRDNAKNTVYLQMNSLKPEDTAVYYCAAGYELYYYIYKMDYWGQGTQVTVSS | high polyreactivity |
| QVQLVESGGGLVQAGGSLRLSCAASGSISNYYGMGWYRQAPGKERELVAAITWGGGRTNYADSVKGRFTISRDNAKNTVYLQMNSLKPEDTAVYYCAKVSVTHRYGAGGDYWGQGTQVTVSS | low polyreactivity |
| QVQLVESGGGLVQAGGSLRLSCAASGSIFITYAMGWYRQAPGKERELVAAIRDSGDRTYYADSVKGRFTISRDNAQNTVYLQMNSLKPEDTAVYHCNARWQEPLKYDYWGQGTQVTVSS | low polyreactivity |
| QVQLVESGGGLVQAGGSLRLSCAASGIIFDYYAMGWYRQAPGKERELVAAISKRGGSTYYADSVKGRFTISRDNAKNTVYLQMNSLKPEDTAVYYCAAEYSKRWWYYYWGQGTQVTVSS | high polyreactivity |
| QVQLVESGGGLVQAGGSLRLSCAASGLTFVYNAMGWYRQATGKERELVAAISRVGSTNYADSVKGRFTISRDNAKYTVYLQLNSLKPADTAVYYCNKGNAYVVYTSGYDYWGQGTQVTVSS | low polyreactivity |
| QVQLVESGGGLVQAGGSLRLSCAASGFIFGRYTMGWYRQAPGKERELVAAISGSDVSTYYADSVKGRFTISRDNAKNTVYLQMNSLKPEDTAVYYCAADAPWAYYEYDYWGQGTQVTVSS | low polyreactivity |
| QVQLVESGGGLVQAGGSLRLSCAASGNTYPVYAMGWYRHASGQERELDATITSGGSTNYADSVKGRFTLSRDNAKTSVYYQMNSLSPEDTAVYYCARRAVYSKRRYDYWGQGTQVTVSS | low polyreactivity |
| QVQLVESGGGLVQAGGSLRLSCAASGRIFRRKTMGWYRQAPGKERELVAAITSRGGSTYYADSVKGRFTISRDNAKNTFYLKMNSLIPEDTGFYYCNTRVVPEIYDYWGQGSQVTVSS | high polyreactivity |
| QVQLVESGGGLVQAGGSLRLSCAASGRTFPFYAMGWYRQAPGKERELVADITSSGGSTYYADSVKGRFTISRDNAKNTVYLQINSLKPEDTAVYYCNKRPWTRFDSGQGTQVTVSS | low polyreactivity |
